Among the data in paper PMC9290431 are stoichiometry N values, retold here.

Several values for one entry are separate records, joined by “and”; a condition that tells them apart may be missing. Equal values may be shown once. Read-outs that look alike come from different tables or passages of the source.

The target of experiment [1] is TDP-43 NTD-NLS (human). Description: AUC.
Experiment [2] addresses TDP-43 NTD-NLS (human). As to the kind of experiment: AUC. This is another data set of the same source.

Consider TDP-43 NTD-NLS (domain or fragment), for which the stoichiometry N with TDP-43 NTD-NLS (human) [1] was 2 and 4; with TDP-43 NTD-NLS (human) [2], 8.

The term stoichiometry N denotes the number of molecules, sites or subunits per partner or assembly.
